From the RNAGym collection of RNA variant scans (doi:10.7554/elife.90254)

B1: LINE1-full (parent)
chain: UACGUAGGUGGUUUUCCCCUGAUAGUGCUAAGGGGGCCUGGAAGUUUGGACUGGGCAGAGCUCAACACAGCGUGGCAAAGUGGCUGUGGCUAGACUGCCUCUCUGGAUUCCUCGUCACUCAGCAGGGCAUCUCUGAGAGAAAUGCC

Variants of: B1
Experiment: self-cleavage, relative activity (ratio to wild type); higher = more cleavage; in vitro, sequencing; the parent is a self-cleaving ribozyme

Variant | self-cleavage
U15C U109C | 1.43
U15C U109A | 1.41
U15C U109G | 0.84
U15C A30U | 0.5
U15C A107G | 1.14
U15C A94U | 0.67
U15C G36C | 1.31
U15G C118U | 0.97
U15C C133A | 1.27
U15C C133U | 1.51
U14C U47C | 1.56
U14C U47G | 1.4
U14C G34U | 0.45
U14C G34A | 0.92
U15A U87G | 0.2
C16A A117G | 1.01
U15A U115C | 1.09
U15G G144A | 0.82
U15A G135A | 0.87
U15G A78G | 0
U15C U130G | 1.49
U15C U130A | 1
U15C A69U | 0.09
U15C G32A | 0.93

Variant | self-cleavage
U15C G32C | 1.16
U15C U29A | 1.27
U15C U29C | 1.28
C16A A121U | 1.97
C16U A121U | 1.36
U14C A129U | 1.35
U15C G127A | 1.05
U15C G127U | 1.23
U15A U20G | 0.68
U15A A94U | 0.25
U15A A94G | 0.19
U14C G41U | 0.71
U15C A141U | 1.58
U15C U81G | 1.89
U15C C128U | 1.1
U15A U26C | 0.86
U15A G80A | 1.16
U15A G48C | 0.71
U15A A50G | 0.67
U15A A50U | 1.43
U15G A69G | 0.95
U15A G58A | 0.09
C16A A124G | 0.4
C16A A79G | 0.62

Variant | self-cleavage
U14G U115C | 0.79
U15A U62C | 0
U15G U115C | 0.84
U15A U143A | 1.09
U15A G40A | 1.24
C16A G32A | 0.77
C16A A107G | 0.87
C16A A141G | 1.35
U15C C98U | 0.33
U15C A65U | 0.2
U15A A24U | 1.12
U15A A24G | 0.49
U14G U47C | 1.02
U15C C99U | 0.55
U14C U96A | 0.13
U15C U143A | 1.55
U15C U143G | 2.03
U15C U134A | 1.04
U14C G54A | 0.71
U15A A77U | 0.98
U15A A77G | 0.89
U14C U119A | 1.25
C16U A141G | 1.13
U15C G125A | 0.87

Variant | self-cleavage
U15C G125U | 0.82
U15C C51A | 1.37
U14C U100A | 0.9
U14C U100G | 1.38
U14C U100C | 1.55
U15C A92U | 0.79
U14G C18A | 1.09
U14C U91C | 0.79
U14C U91G | 0.24
U14C C145G | 0.63
U14C C145U | 1.41
U14C C145A | 1.28
U14C U26A | 0.95
U14C G83A | 1.07
C16U A129U | 1.36
C16U A129G | 1.25
U15C G75A | 1.28
U14C A92U | 0.89
U15C C76A | 1.2
U15C U108A | 2.1
U15C U108C | 1.99
C16U A124U | 0.88
C16U A59U | 0.8
U14C G25U | 1.26

Variant | self-cleavage
U14C G25C | 0.5
U15A A142G | 1.13
U15G A129G | 0.61
U15A C113U | 0.44
U15C A142G | 1.41
U15C A142C | 1.8
U14C U20C | 1.05
U14C G97A | 0.09
U15A A79G | 0
U15C C17G | 1.13
U15C C17U | 1.03
U15A A117G | 1.24
U14C C110A | 1.33
U14C C110U | 1.39
U15A C146U | 0.88
U15C G74A | 1.4
U15C U91C | 0.77
U15C U91A | 0.81
C16U A79G | 0.9
C16U A79U | 1.54
U14C C68A | 0.09
U14C C68U | 0.32
U14C A94G | 0.31
U14C A94C | 0.09

Variant | self-cleavage
U15C U104A | 1.05
U15C U104C | 1.86
U14G A79G | 0.42
U14C U85G | 0
U15C G35A | 1.41
U15C G35U | 1.55
U15C U46C | 1.31
U14C C99A | 0.86
U15G A50G | 0.18
U15G A94U | 0.58
C16A C38U | 1.45
U15A A31G | 0.55
U15A A31U | 1.05
U15C U102C | 1.46
U14G U102G | 0.66
U15C A78G | 1.34
U15C A78U | 2.44
U15C C120U | 1.72
U15C G34C | 1.59
U14G A57G | 2.19
U15A U112C | 1.51
U15A U112A | 1.53
U14C U81A | 1.34
U15C U23C | 0.94

Variant | self-cleavage
U14C U39G | 0.36
U15C A138G | 1.49
U15C A138U | 1.86
U15C A138C | 1.59
U14C U73A | 1.31
U14C U73C | 1.62
U14C G60U | 0.04
U14C G48A | 1.12
U15C A22G | 1.24
U15C | 1.42
U15G | 1.06
U15A | 0.96
U15A U130C | 0.67
U14C U108C | 1.44
U14C G58A | 0.06
U14C G58C | 0.08
U14C G58U | 0.03
U15C C90U | 0.04
U14C U102C | 1.09
U15A A43G | 0.97
U15A A43U | 0.87
U14C U134G | 1.23
U14C U52A | 0.85
U15A U73A | 1.02

Variant | self-cleavage
U15C G83A | 0.72
U15A U47C | 0.9
U14C U104C | 1.51
U15A A129G | 0.65
U15A A78G | 0.99
U15A U102A | 1.05
U15A U102C | 1.15
U14C C128U | 0.2
U15C A117U | 1.58
U14C U46A | 1.4
U14C U46C | 1.3
U15A A30G | 1.16
U15C A79U | 1.88
U14C C131A | 1.15
U14C A121G | 1.3
U14C A121C | 1.13
U14C A121U | 1.25
U14C A117G | 1.22
U14C C38U | 1.09
U15A G114U | 0.97
U15A U45G | 0.73
U15C U26A | 1.16
U14G C66U | 0.06
U15C C146U | 1.57

Variant | self-cleavage
U14C G127U | 1.73
U14C G127A | 1
U15A A69U | 0.05
U14G A107G | 1.28
U14C G139U | 1.63
U15C G82U | 1.9
U15C G82A | 1.92
U14C A142G | 1.34
U15A U39G | 1.02
U14C U87A | 0.15
U14C U87C | 0.26
U14C U87G | 0.31
U15A G53U | 0.72
U15C G70A | 0.33
C16A U96G | 0.08
C16A U96C | 0.04
U14G A77G | 0.57
U15C U52C | 1.14
U15C U52A | 1.35
U15C U100C | 1.81
U15A U134C | 1.19
U14C G55C | 0.09
U15C U73G | 1.18
U14G G36U | 1.51

Variant | self-cleavage
U15A G72A | 0.92
U14C G88A | 0.09
U15A G21A | 1.15
U15C U115G | 1.07
U15C U115A | 1.59
U14C C76U | 1.23
U15A U104C | 1.06
U15C A77C | 0.77
U15C A77G | 1.55
U15C A77U | 1.39
U15C U45C | 1.55
U15C U45A | 1.49
U15C U45G | 1.2
U15C G93U | 0.09
U14G A140U | 0.64
U14C C16A | 0.84
U15C G33A | 1.05
U15C U87A | 0.1
U14C C19U | 0.83
U15A A107G | 0.81
U14C C51G | 1.84
U14C C51U | 0.71
U14G C118U | 1.84
U14G U96C | 0

Variant | self-cleavage
U15C U85C | 0.34
U14G U85C | 0.92
U15A A136U | 0.35
U14C G105A | 1.38
U14C G105U | 1.11
U15A G60U | 0.07
U14C U45C | 1.21
U15A U46G | 0.85
U14C C18A | 1.24
U15C A57G | 1.06
U15C A57C | 0.09
U15C A57U | 0.11
U15A C90A | 0.02
U14C C113U | 0.82
U14C C113A | 1.19
U15C A136U | 1.41
U14G A42U | 0.76
U14G A42G | 1.15
U15C U119C | 1.75
C16A A129U | 1.15
U15C C113U | 1.71
U14C G36A | 1.55
U14C G36U | 1.31
C16U A64G | 0.09

Variant | self-cleavage
U15C A67G | 0.44
U15A U52C | 0.9
U15A U52G | 1.23
U15C A129G | 1.54
U15C G122U | 1.16
U15C G122A | 1.66
U14C U109C | 1.25
U15A U119C | 0.19
U14C U112C | 1.19
U14C U112A | 1.17
U14C G74A | 0.96
U15A G33A | 0.98
U15A A57G | 0.68
U15C C56U | 0.23
U15C C56A | 0.04
U15G G114A | 0.87
U14G A136G | 1.16
U14C U115C | 1.31
U14C C123U | 1.05
U14C G86U | 0.08
U14C U23C | 1.4
U14C U23G | 0.93
U14C U23A | 1.62
U14C U29C | 1.4

Variant | self-cleavage
U15A U100C | 0.91
U15C C28U | 2.35
U15C G144A | 1.04
U15C A64C | 0.64
U15C A64G | 0.36
U15A A121G | 1.15
U14C C146U | 1.32
U15C A59G | 0.1
U15C A59U | 0.94
U15A A42G | 1.31
U15C U62C | 0.09
U15C U62A | 0.07
C16U A140G | 0.99
C16A A22U | 1.21
U15C A50G | 1.11
U15C A50C | 2.42
U15G A79G | 0
U15A U91C | 0.44
U15A U85C | 0.03
U15A U132C | 0.98
U15G A43G | 0.5
U15C G49A | 1.21
U14C C61G | 0.1
U14G C38G | 1.12

Variant | self-cleavage
U15A U29C | 2.9
U15C A140U | 1.61
U15A G32A | 0.66
U15C G44A | 1.41
U15G G44U | 0.96
U15C C95U | 0.28
U14C C90U | 0.01
U15C C61U | 0.05
U15C C66U | 0.04
U15A G35U | 1.16
U15A C101G | 0.84
U15C G137U | 1.26
U15C U39G | 1.6
U15C U39A | 1.56
U14C G32U | 1.03
U14C G32C | 1.58
U15C A124G | 1.39
U15C A124U | 1.32
U15C A124C | 0.86
U14G | 0.82
U15C G114C | 1.59
U15C G114A | 0.71
